In FireProtDB (doi:10.1111/febs.12694):
Several values for one entry are separate records, joined by “and”; a condition that tells them apart may be missing. Equal values may be shown once.

B1: Bacteriorhodopsin, P02945 (parent)
chain: MLELLPTAVEGVSQAQITGRPEWIWLALGTALMGLGTLYFLVKGMGVSDPDAKKFYAITTLVPAIAFTMYLSMLLGYGLTMVPFGGEQNPIYWARYADWLFTTPLLLLDLALLVDADQGTILALVGADGIMIGTGLVGALTKVYSYRFVWWAISTAAMLYILYVLFFGFTSKAESMRPEVASTFKVLRNVTVVLWSAYPVVWLIGSEGAGIVPLNIETLLFMVLDVSAKVGFGLILLRSRAIFGEAEAPEPSAGDGAAATSD

Variants of: B1
Conditions: Halobacterium salinarum (strain ATCC 700922 / JCM 11081 / NRC-1); pH 3.5; Thermal; DSC; structure 1C3W; whole UniProt chain shown

Variant	Tm [°C]	change of melting temperature, mutant - wild type (higher = more stable) [°C]
E22Q E207Q E217Q	69.4	-7.2

Same assay, conditions: Halobacterium salinarum (strain ATCC 700922 / JCM 11081 / NRC-1); pH 4; Thermal; UV spectroscopy; transition: 2; structure 1C3W; whole UniProt chain shown

Variant	Tm	change of melting temperature, mutant - wild type (higher = more stable) [°C]
E22Q E207Q E217Q	60.1 °C and 64.1 °C	-5.1

Same assay, conditions: Halobacterium salinarum (strain ATCC 700922 / JCM 11081 / NRC-1); pH 7; Thermal; DSC; structure 1C3W; whole UniProt chain shown

Variant	Tm [°C]	change of melting temperature, mutant - wild type (higher = more stable) [°C]
E22Q E207Q E217Q	93.3	-4.9

Same assay, conditions: Halobacterium salinarum (strain ATCC 700922 / JCM 11081 / NRC-1); pH 7; Thermal; UV spectroscopy; transition: 2; structure 1C3W; whole UniProt chain shown

Variant	change of melting temperature, mutant - wild type (higher = more stable) [°C]
E22Q E207Q E217Q	-0.4

Same assay, conditions: Halobacterium salinarum (strain ATCC 700922 / JCM 11081 / NRC-1); pH 9; Thermal; DSC; structure 1C3W; whole UniProt chain shown

Variant	Tm [°C]	change of melting temperature, mutant - wild type (higher = more stable) [°C]
E22Q E207Q E217Q	82.6	-11.9

Same assay, conditions: Halobacterium salinarum (strain ATCC 700922 / JCM 11081 / NRC-1); pH 9.5; Thermal; UV spectroscopy; glycine buffer; transition: 2; structure 1C3W; whole UniProt chain shown

Variant	change of melting temperature, mutant - wild type (higher = more stable) [°C]
E22Q E207Q E217Q	0
